Tests used:
[1] = biological target: T1, IsdB (NEAT1 and NEAT2 domains connected by the helical linker), wild type (S. aureus, UniProt Q8NX66 125-485); assay: SPR; settings: both partners purified
[2] = biological target: T1, IsdB (NEAT1 and NEAT2 domains connected …); assay: SPR; settings: both partners purified; remark: listed apart in the source

T1 sequence (Q8NX66 125-485): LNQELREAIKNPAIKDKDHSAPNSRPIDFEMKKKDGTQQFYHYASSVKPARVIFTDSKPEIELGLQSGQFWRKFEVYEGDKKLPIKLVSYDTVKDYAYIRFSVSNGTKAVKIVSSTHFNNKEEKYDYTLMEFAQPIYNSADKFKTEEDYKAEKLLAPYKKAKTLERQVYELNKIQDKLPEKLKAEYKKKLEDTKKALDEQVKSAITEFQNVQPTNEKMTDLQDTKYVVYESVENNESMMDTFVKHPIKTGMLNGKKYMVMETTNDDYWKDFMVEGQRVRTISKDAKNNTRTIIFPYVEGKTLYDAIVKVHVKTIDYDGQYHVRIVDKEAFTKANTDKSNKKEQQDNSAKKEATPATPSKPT

Binder	KD of the first, reversible step of the two-state irreversible model [1] [nM]	KD of the first, reversible step of the two-state irreversible model [2] [nM]
Human alpha-semihemoglobin, oxidized (met) form (complex) chain 1: not shown chain 2: not shown	108 ± 11	–
Human hemoglobin A, oxidized form (methemoglobin, MetHb) (complex) chain 1: not shown chain 2: not shown	70 ± 6	69 ± 1
Human beta-semihemoglobin, oxidized (met) form (complex) chain 1: not shown chain 2: not shown	91 ± 5	–

— article PMC6901573 (Scientific Reports, 2019)
